T1: Arabidopsis SERRATE core (SE core, residues 194-543), hexahistidine-tagged (Arabidopsis thaliana, UniProt Q9ZVD0 194-543)
T1 sequence (looked up): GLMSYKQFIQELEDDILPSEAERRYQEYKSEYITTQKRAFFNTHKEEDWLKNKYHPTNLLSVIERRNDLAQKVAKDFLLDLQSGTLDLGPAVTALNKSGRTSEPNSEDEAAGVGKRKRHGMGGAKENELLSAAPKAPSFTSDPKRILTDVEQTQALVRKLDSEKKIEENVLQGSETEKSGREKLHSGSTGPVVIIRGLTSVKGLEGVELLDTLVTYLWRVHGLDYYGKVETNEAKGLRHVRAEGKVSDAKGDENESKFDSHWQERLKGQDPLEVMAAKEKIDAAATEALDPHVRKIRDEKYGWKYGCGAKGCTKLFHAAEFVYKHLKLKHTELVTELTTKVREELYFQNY

T2: GST-fused SE Middle domain (SE-Mid, residues 248-470) (Arabidopsis thaliana, UniProt Q9ZVD0 248-470)
T2 sequence (looked up): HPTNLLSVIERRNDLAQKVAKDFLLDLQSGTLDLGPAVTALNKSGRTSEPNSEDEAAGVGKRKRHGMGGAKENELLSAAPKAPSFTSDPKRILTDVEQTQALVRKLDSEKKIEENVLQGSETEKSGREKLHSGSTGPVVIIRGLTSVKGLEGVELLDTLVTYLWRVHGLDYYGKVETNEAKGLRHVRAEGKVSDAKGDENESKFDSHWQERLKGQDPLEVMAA

B1: GST-fused HYL1 RBD1+2 (residues 15-172) (domain or fragment, Arabidopsis thaliana, UniProt O04492 15-172, looked up)
chain: VFKSRLQEYAQKYKLPTPVYEIVKEGPSHKSLFQSTVILDGVRYNSLPGFFNRKAAEQSAAEVALRELAKSSELSQCVSQPVHETGLCKNLLQEYAQKMNYAIPLYQCQKVETLGRVTQFTCTVEIGGIKYTGAATRTKKDAEISAGRTALLAIQSDT
B2: GST-fused HYL1 RBD2 (residues 100-172) (domain or fragment, Arabidopsis thaliana, UniProt O04492 100-172, looked up)
chain: GLCKNLLQEYAQKMNYAIPLYQCQKVETLGRVTQFTCTVEIGGIKYTGAATRTKKDAEISAGRTALLAIQSDT
B3: Non-tagged HYL1 RBD2 (residues 100-172) (domain or fragment, Arabidopsis thaliana, UniProt O04492 100-172, looked up)
chain: B2 chain

Experiments:
[1] = biological target: T1, Arabidopsis SERRATE core (SE core, …); experiment: pull-down
[2] = biological target: T2, GST-fused SE Middle domain (SE-Mid, …); experiment: pull-down

Row | Binder | binding result [1] | binding result [2]
1 | B1 | binds | 
2 | B2 | binds | 
3 | B3 |  | binds

Reference: paper PMC3177193 (Nucleic Acids Research, 2011)
